Columns and labels:
[1] = target: T1, human A-beta(1-40) peptide, monomeric (BAM) (human, biotin at the C-terminus in capture ELISA, SPR and TR-FRET; not biotinylated where coated directly (Example 7)); assay: TR-FRET competition, mean IC50
T1 construct: synthetic peptide (Anaspec), TFA/HFIP treated to give monomer; also called monomeric A-beta

[2] = target: T1, human A-beta(1-40) peptide, monomeric …; assay: TR-FRET competition; labelled competitor not given

Row | IC50 [1] [nM] | IC50 [2] [nM] | Binder
1 | 2.1 | 2.1 | ABII003 (VHH, humanized variant of ABII002) VHH: EVQLLESGGGLVLPGGSLRLSCVHSGPTFRTDTMGWFRQAPGKGREFVAAVTWNSGRINYADSVKGRFTVSRDNTRNAAYLQMSGLKDEDTAVYYCTAHRFVVGGNRVEDWRYWGQGTLVTVSS
2 |  | 3.1 | ABII037 (VHH, humanized variant of ABII002) VHH: EVQLLESGGGLVQPGGSLRLSCVHSGPTFRTDTMGWFRQAPGKGREFVAAVTWNSGRINYADSVKGRFTISRDNSKNTAYLQMNSLRAEDTAVYYCAAHRFVVGGNRVEDWRYWGQGTLVTVSS
3 | 24 | 24 | ABII011 (VHH, humanized variant of ABII002) VHH: EVQLLESGGGLVLPGGSLRLSCVHSGPTFRTDTMGWFRQAPGKGREFVAAVTWNSGRINYADSVKGRFTVSRDNTRNALYLQMSGLKDEDTAVYYCTAHRFVVGGNRVEDWRYWGQGTLVTVSS
4 | 1.6 | 1.6 | ABII007 (VHH, humanized variant of ABII002) VHH: EVQLLESGGGLVLPGGSLRLSCVHSGPTFRTDTMGWFRQAPGKGREFVAAVTWNSGRINYADSVKGRFTISRDNTRNAAYLQMSGLKDEDTAVYYCTAHRFVVGGNRVEDWRYWGQGTLVTVSS
5 | 80 | 80 | ABII006 (VHH, humanized variant of ABII002) VHH: EVQLLESGGGLVLPGGSLRLSCVASGPTFRTDTMGWFRQAPGKGREFVAAVTWNSGRINYADSVKGRFTVSRDNTRNAAYLQMSGLKDEDTAVYYCTAHRFVVGGNRVEDWRYWGQGTLVTVSS
6 | 1.7 | 1.7 | ABII009 (VHH, humanized variant of ABII002) VHH: EVQLLESGGGLVLPGGSLRLSCVHSGPTFRTDTMGWFRQAPGKGREFVAAVTWNSGRINYADSVKGRFTVSRDNTKNAAYLQMSGLKDEDTAVYYCTAHRFVVGGNRVEDWRYWGQGTLVTVSS
7 | 2.1 | 2.1 | ABII004 (VHH, humanized variant of ABII002) VHH: EVQLLESGGGLVQPGGSLRLSCVHSGPTFRTDTMGWFRQAPGKGREFVAAVTWNSGRINYADSVKGRFTVSRDNTRNAAYLQMSGLKDEDTAVYYCTAHRFVVGGNRVEDWRYWGQGTLVTVSS
8 | 1.9 | 1.9 | ABII008 (VHH, humanized variant of ABII002) VHH: EVQLLESGGGLVLPGGSLRLSCVHSGPTFRTDTMGWFRQAPGKGREFVAAVTWNSGRINYADSVKGRFTVSRDNSRNAAYLQMSGLKDEDTAVYYCTAHRFVVGGNRVEDWRYWGQGTLVTVSS
9 | 1.6 | 1.6 | ABII013 (VHH, humanized variant of ABII002) VHH: EVQLLESGGGLVLPGGSLRLSCVHSGPTFRTDTMGWFRQAPGKGREFVAAVTWNSGRINYADSVKGRFTVSRDNTRNAAYLQMSSLKDEDTAVYYCTAHRFVVGGNRVEDWRYWGQGTLVTVSS
10 | 1.5 | 1.5 | ABII012 (VHH, humanized variant of ABII002) VHH: EVQLLESGGGLVLPGGSLRLSCVHSGPTFRTDTMGWFRQAPGKGREFVAAVTWNSGRINYADSVKGRFTVSRDNTRNAAYLQMNGLKDEDTAVYYCTAHRFVVGGNRVEDWRYWGQGTLVTVSS
11 | 3.3 | 3.3 | ABII005 (VHH, humanized variant of ABII002) VHH: EVQLLESGGGLVLPGGSLRLSCAHSGPTFRTDTMGWFRQAPGKGREFVAAVTWNSGRINYADSVKGRFTVSRDNTRNAAYLQMSGLKDEDTAVYYCTAHRFVVGGNRVEDWRYWGQGTLVTVSS
12 | 1.9 | 1.9 | ABII010 (VHH, humanized variant of ABII002) VHH: EVQLLESGGGLVLPGGSLRLSCVHSGPTFRTDTMGWFRQAPGKGREFVAAVTWNSGRINYADSVKGRFTVSRDNTRNTAYLQMSGLKDEDTAVYYCTAHRFVVGGNRVEDWRYWGQGTLVTVSS
13 | 18 | 18 | ABII051 (VHH, humanized variant of ABII050) VHH: EVQLLESGGGLVQPGGSLRLSCAASGRTFNNYNMGWFRQAPGKGREFVAAVSRSGVSTYYADSVKGRFTISRDNAKNAVYLQMNSLRPEDTAIYYCGAAYRGTAINVRRSYDSWGQGTLVTVSS
14 | 51 | 51 | ABII054 (VHH, humanized variant of ABII050) VHH: EVQLLESGGGLVQPGGSLRLSCAASGRTFNNYNMGWFRQAPGKGREFVAAVSRSGVSTYYADSVKGRFTISRDNAKNALYLQMNSLRPEDTAIYYCGAAYRGTAINVRRSYDSWGQGTLVTVSS
15 | 29 | 29 | ABII056 (VHH, humanized variant of ABII050) VHH: EVQLLESGGGLVQPGGSLRLSCAASGRTFNNYNMGWFRQAPGKGREFVAAVSRSGVSTYYADSVKGRFTISRDNAKNAVYLQMNSLRPEDTAIYYCAAAYRGTAINVRRSYDSWGQGTLVTVSS
16 | 50 | 50 | ABII060 (VHH, humanized variant of ABII050) VHH: EVQLLESGGGLVQPGGSLRLSCAASGRTFNNYNMGWFRQAPGKGREFVAAVSRSGVSTYYADSVKGRFTISRDNSKNTLYLQMNSLRPEDTAVYYCAAAYRGTAINVRRSYSSWGQGTLVTVSS
17 | 20 | 20 | ABII053 (VHH, humanized variant of ABII050) VHH: EVQLLESGGGLVQPGGSLRLSCAASGRTFNNYNMGWFRQAPGKGREFVAAVSRSGVSTYYADSVKGRFTISRDNAKNTVYLQMNSLRPEDTAIYYCGAAYRGTAINVRRSYDSWGQGTLVTVSS
18 | 19 | 19 | ABII052 (VHH, humanized variant of ABII050) VHH: EVQLLESGGGLVQPGGSLRLSCAASGRTFNNYNMGWFRQAPGKGREFVAAVSRSGVSTYYADSVKGRFTISRDNSKNAVYLQMNSLRPEDTAIYYCGAAYRGTAINVRRSYDSWGQGTLVTVSS
19 | 22 | 22 | ABII055 (VHH, humanized variant of ABII050) VHH: EVQLLESGGGLVQPGGSLRLSCAASGRTFNNYNMGWFRQAPGKGREFVAAVSRSGVSTYYADSVKGRFTISRDNAKNAVYLQMNSLRPEDTAVYYCGAAYRGTAINVRRSYDSWGQGTLVTVSS
20 |  | 2.4 | ABII061 (VHH, humanized variant of ABII050) VHH: EVQLLESGGGLVQPGGSLRLSCAASGRTFNNYNMGWFRQAPGKGREFVAAVSRSGVSTYYADSVKGRFTISRDNSKNTVYLQMNSLRPEDTAVYYCGAAYRGTAINVRRSYSSWGQGTLVTVSS
21 | 46 | 46 | ABII057 (VHH, humanized variant of ABII050) VHH: EVQLLESGGGLVQPGGSLRLSCAASGRTFNNYNMGWFRQAPGKGREFVAAVSRSGVSTYYADSVKGRFTISRDNSKNTVYLQMNSLRPEDTAVYYCAAAYRGTAINVRRSYDSWGQGTLVTVSS
22 | 73 | 73 | ABII058 (VHH, humanized variant of ABII050) VHH: EVQLLESGGGLVQPGGSLRLSCAASGRTFNNYNMGWFRQAPGKGREFVAAVSRSGVSTYYADSVKGRFTISRDNSKNTLYLQMNSLRPEDTAVYYCAAAYRGTAINVRRSYDSWGQGTLVTVSS

Source: patent US20120058118A1 (Boehringer Ingelheim, published 2012)
